According to the RNAGym collection of RNA variant scans (doi:10.7554/elife.80360):

B1: Twister Ribozyme (parent)
chain: AACACUGCCAAUGCCGGUCCCAAGCCCGGAUAAAAGUGGAGGGGGCGG

Variants of: B1
Assay: self-cleavage, relative activity (ratio to wild type); higher = more cleavage; co-transcriptional

Variant	self-cleavage
AACACUGCCAAUGCCGGUCCCAAGCCCGGAUAAGAGUGGAGGGGGGGG	0.815
AACACUGCCAAUGCCGGUCCCAAGCCCGGAUAAGACUGGAGGGGGCGG	0.179
AACACUGCCAAUGCCGGUCCCAAGCCCGGAUAAGAGUAGAGGGGGCGG	0.629
AACACUGCCAAUGCCGGUCCCAAGCCCGGAUAAGAGUCGAGGGGGCGG	0.632
AACACUGCCAAUGCCGGUCCCAAGCCCGGAUAAGAGUGAAGGGGGCGG	0.133
AACACUGCCAAUGCCGGUCCCAAGCCCGGAUAAGAGUGGACGGGGCGG	0.12
AACACUGCCAAUGCCGGUCCCAAGCCCGGAUAAGAGUGGAGUGGGCGG	0.131
AACACUGCCAAUGCCGGUCCCAAGCCCGGAUAAGAGUGGAGGAGGCGG	0.136
AACACUGCCAAUGCCGGUCCCAAGCCCGGAUAAGAGUGGAGGCGGCGG	0.162
AACACUGCCAAUGCCGGUCCCAAGCCCGGAUAAGAGUGGAGGUGGCGG	0.133
AACACUGCCAAUGCCGGUCCCAAGCCCGGAUAAGAGUGGAGGGAGCGG	0.809
AACACUGCCAAUGCCGGUCCCAAGCCCGGAUAAGAGUGGAGGGGACGG	0.721
AACACUGCCAAUGCCGGUCCCAAGCCCGGAUAAGAGUGGAGGGGUCGG	0.553
AACACUGCCAAUGCCGGUCCCAAGCCCGGAUAAGAGUGGAGGGGGCCG	0.193
AACACUGCCAAUGCCGGUCCCAAGCCCGGAUAAGAGUGGAGGGGGCUG	0.553
AACACUGCCAAUGCCGGUCCCAAGCCCGGAUAAGAGUGGAGGGGGCGA	0.645
AACACUGCCAAUGCCGGUCCCAAGCCCGGAUAAGAGUGGAGGGGGCGC	0.791
AACACUGCCAAUGCCGGUCCCAAGCCCGGAUAAGAGCGGAGGGGGCGG	0.0836
AACACUGCCAAUGCCGGUCCCAAGCCCGGAUAAGAGGGGAGGGGGCGG	0.314
AACACUGCCAAUGCCGGUCCCAAGCCCGGAUAAUGGUGGAGGGGGCGG	0.191
AACACUGCCAAUGCCGGUCCCAAGCCCGGAUAAUAGUGGCGGGGGCGG	0.137
AACACUGCCAAUGCCGGUCCCAAGCCCGGAUAAUAGUGGGGGGGGCGG	0.122
AACACUGCCAAUGCCGGUCCCAAGCCCGGAUAAUAGUGGUGGGGGCGG	0.141
AACACUGCCAAUGCCGGUCCCAAGCCCGGAUAAUAGUGGAGGGGGAGG	0.76
AACACUGCCAAUGCCGGUCCCAAGCCCGGAUAAUACUGGAGGGGGCGG	0.132
AACACUGCCAAUGCCGGUCCCAAGCCCGGAUAAUAUUGGAGGGGGCGG	0.124
AACACUGCCAAUGCCGGUCCCAAGCCCGGAUAAUAGUAGAGGGGGCGG	0.654

Variant	self-cleavage
AACACUGCCAAUGCCGGUCCCAAGCCCGGAUAAUAGUCGAGGGGGCGG	0.638
AACACUGCCAAUGCCGGUCCCAAGCCCGGAUAAUAGUGCAGGGGGCGG	0.138
AACACUGCCAAUGCCGGUCCCAAGCCCGGAUAAUAGUGGAGAGGGCGG	0.169
AACACUGCCAAUGCCGGUCCCAAGCCCGGAUAAUAGUGGAGCGGGCGG	0.217
AACACUGCCAAUGCCGGUCCCAAGCCCGGAUAAUAGUGGAGUGGGCGG	0.145
AACACUGCCAAUGCCGGUCCCAAGCCCGGAUAAUAGUGGAGGCGGCGG	0.186
AACACUGCCAAUGCCGGUCCCAAGCCCGGAUAAUAGUGGAGGUGGCGG	0.193
AACACUGCCAAUGCCGGUCCCAAGCCCGGAUAAUAGUGGAGGGUGCGG	0.771
AACACUGCCAAUGCCGGUCCCAAGCCCGGAUAAUAGUGGAGGGGACGG	0.815
AACACUGCCAAUGCCGGUCCCAAGCCCGGAUAAUAGUGGAGGGGCCGG	0.295
AACACUGCCAAUGCCGGUCCCAAGCCCGGAUAAUAGUGGAGGGGGCGA	0.703
AACACUGCCAAUGCCGGUCCCAAGCCCGGAUAAUAGUGGAGGGGGCGU	0.811
AACACUGCCAAUGCCGGUCCCAAGCCCGGAUAAUAGAGGAGGGGGCGG	0.368
AACACUGCCAAUGCCGGUCCCAAGCCCGGAUAAUAGCGGAGGGGGCGG	0.155
AACACUGCCAAUGCCGGUCCCAAGCCCGGAUAAACGUGGAGGGGGCGG	0.962
AACACUGCCAAUGCCGGUCCCAAGCCCGGAUAAACGUGGGGGGGGCGG	0.18
AACACUGCCAAUGCCGGUCCCAAGCCCGGAUAAACGUGGUGGGGGCGG	0.142
AACACUGCCAAUGCCGGUCCCAAGCCCGGAUAAACCUGGAGGGGGCGG	0.382
AACACUGCCAAUGCCGGUCCCAAGCCCGGAUAAACGUCGAGGGGGCGG	0.921
AACACUGCCAAUGCCGGUCCCAAGCCCGGAUAAACGUGUAGGGGGCGG	0.144
AACACUGCCAAUGCCGGUCCCAAGCCCGGAUAAACGUGGACGGGGCGG	0.245
AACACUGCCAAUGCCGGUCCCAAGCCCGGAUAAACGUGGAUGGGGCGG	0.709
AACACUGCCAAUGCCGGUCCCAAGCCCGGAUAAACGUGGAGCGGGCGG	0.381
AACACUGCCAAUGCCGGUCCCAAGCCCGGAUAAACGUGGAGGAGGCGG	0.235
AACACUGCCAAUGCCGGUCCCAAGCCCGGAUAAACGUGGAGGCGGCGG	0.206
AACACUGCCAAUGCCGGUCCCAAGCCCGGAUAAACGUGGAGGGAGCGG	0.87
AACACUGCCAAUGCCGGUCCCAAGCCCGGAUAAACGUGGAGGGUGCGG	0.976
